Substitutions are numbered along the chain they refer to. Each block holds one binder with its values, some of them ahead of it.
Target: T1, LRRC15 on U-87 MG (LRRC15+) cells (human, UniProt Q8TF66 22-581)
T1 construct: Endogenous LRRC15 of U-87 MG cells (ATCC HTB-14); also called cell surface LRRC15
T1 sequence: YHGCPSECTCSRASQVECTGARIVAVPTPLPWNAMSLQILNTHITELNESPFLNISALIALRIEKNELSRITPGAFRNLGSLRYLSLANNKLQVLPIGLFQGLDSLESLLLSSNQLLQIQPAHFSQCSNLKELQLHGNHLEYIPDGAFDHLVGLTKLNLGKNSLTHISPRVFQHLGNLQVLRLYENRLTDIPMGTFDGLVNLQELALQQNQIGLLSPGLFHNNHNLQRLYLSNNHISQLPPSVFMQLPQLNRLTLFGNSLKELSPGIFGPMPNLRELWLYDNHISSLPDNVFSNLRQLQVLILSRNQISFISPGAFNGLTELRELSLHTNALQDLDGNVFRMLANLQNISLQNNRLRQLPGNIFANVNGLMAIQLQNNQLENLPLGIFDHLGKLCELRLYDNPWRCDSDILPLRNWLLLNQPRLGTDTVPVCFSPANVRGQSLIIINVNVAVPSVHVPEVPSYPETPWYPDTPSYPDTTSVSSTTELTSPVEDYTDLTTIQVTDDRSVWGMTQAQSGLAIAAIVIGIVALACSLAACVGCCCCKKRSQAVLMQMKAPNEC
Assay: flow cytometry on U-87 MG (LRRC15+) cells, 60 nM to 1 pM
Description: FIGS. 40a-40b: Characterization of binding affinity for anti-LRRC15 mAbs. Anti-LRRC15 mAbs were assayed for their binding to U-87 MG (LRRC15+) cells.
Binding affinity of selected LRRC15 pH engineered antibody variants from Example 9 were measured on U-87 MG (LRRC15+) cells. 100,000 U-87 MG cells (ATCC HTB-14) were seeded per well in a 96 well deep well plate. Samrotamab and a pH engineered antibody variant were serially diluted at a 1:3 dilution in ice cold FC buffer (phosphate buffered saline (PBS), pH 7.4+2 mM ethylenediaminetetraacetic acid (EDTA)+2% (v/v) HI FBS). The plates were spun at 2,000 RPM for 2 minutes, the supernatant was removed, and 100 μL of diluted antibody was added to each well with final concentration ranging from 60 nM to 1 pM and incubated for 2 hours at 4° C. Post incubation, the cells were spun at 2000 rpm for 2 min and supernatant was discarded. Cells were washed twice with 500 μL of ice-cold FC buffer and resuspended with 100 μL of FC buffer. […] Post incubation, cells were washed with FC buffer and resuspended in 100 μL of FC buffer to read on a BD Accuri C6 flow cytometer. Binding affinity was measured as a dissociation constant KD by GraphPad Prism assuming Michaelis-Menten binding kinetics.

IC50: 0.228 nM
B1: samrotamab (antibody, V domains shown)
VH: EVQLVQSGAEVKKPGASVKVSCKASGYKFSSYWIEWVKQAPGQGLEWIGEILPGSDTTNYNEKFKDRATFTSDTSINTAYMELSRLRSDDTAVYYCARDRGNYRAWFGYWGQGTLVTVSS
VL: DIQMTQSPSSLSASVGDRVTITCRASQDISNYLNWYQQKPGGAVKFLIYYTSRLHSGVPSRFSGSGSGTDYTLTISSLQPEDFATYFCQQGEALPWTFGGGTKVEIK
notes: IgG; the entries called heavy and light chain hold the variable domains only; also called MYT0963

IC50: 0.484 nM
B2: MYT0971 (antibody, V domains shown)
VH: B1 VH with W33H
VL: B1 VL
notes: IgG

— patent publication US20240158493A1 (MYTHIC THERAPEUTICS, published 2024)
